# Laboratory results: US20130035289A1, “PHARMACEUTICAL COMPOSITION FOR TREATMENT OF THROMBOSIS-RELATED DISEASES COMPRISING A FRAGMENT OF PROLACTIN (PRL)-GROWTH HORMONE (GH)-PLACENTAL LACTOGEN (PL)-FAMILY PROTEIN” (UNIVERSITE DE LIEGE, priority 2010, published 2013)
# T1: PAI-1 (Mus musculus, UniProt P22777)
# T1 construct: from tissue; host or cells: BalbC Njrj mice, in vivo (blood)
# T1 sequence (P22777 23-402): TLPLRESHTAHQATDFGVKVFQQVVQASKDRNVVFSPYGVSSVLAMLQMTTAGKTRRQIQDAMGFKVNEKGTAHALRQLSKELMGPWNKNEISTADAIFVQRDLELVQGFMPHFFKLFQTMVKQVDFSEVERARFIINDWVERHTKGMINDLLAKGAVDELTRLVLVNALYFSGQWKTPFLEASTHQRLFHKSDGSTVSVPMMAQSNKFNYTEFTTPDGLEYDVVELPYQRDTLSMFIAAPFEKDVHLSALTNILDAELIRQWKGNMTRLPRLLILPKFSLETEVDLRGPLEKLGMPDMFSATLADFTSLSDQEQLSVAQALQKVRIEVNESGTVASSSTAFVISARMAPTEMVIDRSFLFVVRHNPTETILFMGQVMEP
# B1: 16K hPRL: 16K N-terminal human prolactin fragment, recombinant, produced and purified from E. coli (protein)
# chain: LPICPGGAARCQVTLRDLFDRAVVLSHYIHNLSSEMFSEFDKRYTHGRGFITKAINSCHTSSLATPEDKEQAQQMNQKDFLSLIVSILRSWNEPLYHLVTEVRGMQEAPEAILSKAVEIEEQTKRLLEGMELIVSQVHP
# B2: 14K hGH: 14K N-terminal fragment of human growth hormone, recombinant, produced and purified from E. coli (protein)
# chain: MFPTIPLSRLFDNAMLRAHRLHQLAFDTYQEFEEAYIPKEQKYSFLQNPQTSLSFSESIPTPSNREETQQKSNLELLRISLLLIQSWLEPVQFLRSVFANSLVYGASDSNVYDLLKDLEEGIQTLMGRLEDGSP
# Columns and labels:
# [1] = biological target: T2, PAI-1/tPA complex (Homo sapiens, UniProt P05121); assay: Complex formation between PAI-1 and tPA by SDS-PAGE (silver staining); format: biochemical; settings: PAI-1 pre-incubated 10 min at 37° C. with 16K hPRL (5 μg) or 14K hGH (4 μg), then tPA
# T2 construct: purchased Calbiochem (tPA); PAI-1 a gift of Pr; P. Declerck
# Procedure: tPA/PAI-1 complex was formed 10 min after their incubation at 37° C. Pre-incubation of PAI-1 (4 μg) with 16K hPRL (5 μg) or 14K hGH (4 μg) during 10 min at 37° C., followed by a second 10 min incubation with tPA (2 μg) was stopped by the addition of sample buffer containing 5% β-Mercaptoethanol. Samples are heated at 95° C. before being analysed by SDS-PAGE. Silver staining was performed on the gel to visualize protein bands and complexes.
# [2] = biological target: T3, PAI-1 (Homo sapiens, UniProt P05121); assay: Gal4 yeast two-hybrid system; format: binding
# T3 construct: gift of Pr; P. Declerck
# [3] = system: endothelial cells; assay: Endothelial cell proliferation (BrdU incorporation); format: cell-based, bovine; settings: for anti-proliferative function: down-regulation of PAI-1 expression by si-RNA; for anti-proliferation effect: recombinant wild type PAI-1 added to culture medium
# Procedure: The cells were plated in 96-well culture plates at a density of 2,500 cells per well in 10% FCS/DMEM and allowed to adhere for 24 h. Then complete medium was replaced with SFM for 24 h. […] Proliferation was analysed 24 h later by measuring BrdU incorporation by means of the Cell Proliferation ELISA, BrdU (Colorimetric) (Roche, Clinical Laboratories, Indianapolis, Ind.). […] ID NO: 35); PAI-1 […] ID NO: 36).
# [4] = biological target: T3, PAI-1; assay: In vitro clot lysis assay in pooled normal human plasma with added PAI-1 and tPA; format: biochemical; settings: 3 μM protein, recombinant PAI-1, tPA
# Procedure: Clot lysis was performed as follows: pooled normal plasma were used in citrated tube. Recombinant wild type PAI-1 was incubated in the presence or in the absence of 16K hPRL (3 μM), 14K hGH (3 μM) or different peptides (25 μM) for 10 min at 37° C., before to be added to diluted plasma in tris tween buffer (75 μl of plasma in 200 μl of 10 mM TRIS pH 7.5, 0.01% tween 20), followed by a second incubation for 10 min at 37° C. tPA was added to each tube at the end to reach a final volume of […]. Aliquots from each tube (80 μl) were added in duplicate to 96 wells, each containing 20 μl CaCl2 to give the following final concentration per well of 10 mM. Clot formation and dissolution were monitored at RT measuring turbidity at 405 nm in 5 min intervals.
# [5] = biological target: T3, PAI-1; assay: Co-immunoprecipitation with anti-PAI-1 antibody and Western blot, human PAI-1; format: binding; settings: for complex with recombinant wild type PAI-1 (co-immunoprecipitation): 10 min at 37° C.; for complex with endogenous PAI-1 from HUVEC culture medium: conditioned medium of HUVEC; for interaction with PAI-1 in plasma samples: human plasma
# Procedure: (§1) The interaction was further confirmed by pull-down affinity assays. For the immunoprecipitation 4 μg of recombinant 16K hPRL or 14 hGH were mixed with 3 μg of recombinant wt PAI-1, 500 μl of conditioned media from HUVEC cells, 300 μl of human plasma or 100 μl of mouse plasma. The mixtures were incubated for 10 min at 37° C. 6 μg of mouse monoclonal antibody against PAI-1 (clone 33H1F7, recognize human and mouse PAI-1) was added to each tube and incubated overnight at 4° C. under rotation. For the experiments with mice expressing 16K hPRL, 300 μl of plasma from mice injected with Null-Ad or 16K-Ad adenovirus were collected 5 days after virus injection, and immunoprecipitation was performed as described above with same PAI-1 monoclonal antibody (33H1F7). Fifty microliters of protein A agarose was added to the mix and incubated overnight at 4° C. under rotation. After centrifugation for 1 min at 6000 rpm the supernatants were discarded and the pellets (containing the beads) were washed 5 times with PBS. After a new centrifugation, the beads were resuspended in 30 μl 1×β-mercaptoethanol loading buffer and boiled at 100° C. for 5 min, then left on ice for 5 min. The beads were centrifuged for 5 min at 4° C., then the supernatants were subjected to SDS-PAGE (12% acrylamide) for Western blot analysis.
# (§2) For Western Blot Analysis cytoplasmic cell lysate, samples of different CoIP and mouse plasma were separated by SDS-PAGE (12% and 10%) and transferred to a polyvinylidene fluoride membrane (Milipore Corp., Bedford, Mass.). Blots were blocked overnight with 5% milk in Tris-buffered saline with 0.1% Tween 20 and probed for 1 h at RT with primary antibodies: rabbit polyclonal anti-hPRL (DAKO) or rabbit polyclonal anti hGH (home made). After three washes with Tris-buffered saline containing 0.1% Tween 20, antigen-antibody complexes were detected with peroxidase-conjugated goat anti-rabbit secondary antibody and an enhanced fluoro-chemiluminescent system (ECL-plus; Amersham Biosciences, Arlington Heights, Ill.).
# [6] = system: uPA; assay: Immunoprecipitation with uPA in presence or absence of PAI-1; format: binding
# Procedure: Western blot analysis of 16K PRL and 14K GH after their immunoprecipitation with uPA in the presence or in the absence of PAI-1. r14K GH and r16K PRL: recombinant proteins controls loaded on gels, no IP performed. (b) HUVEC were incubated with 14K GH or 16K PRL for 2 hours and then subjected to immunofluorescence analysis for uPA and 14K GH or 16K PRL Labellings appears in white for uPA (left panels), 14K GH or 16K PRL (middle panels).
# [7] = biological target: T1, PAI-1; assay: Co-immunoprecipitation with anti-PAI-1 antibody and Western blot, mouse PAI-1; format: binding; settings: for interaction with PAI-1 in plasma samples: mouse plasma
# Procedure: as §1, §2
# [8] = absence of PAI-1, data not shown
# T3 sequence (P05121 24-402): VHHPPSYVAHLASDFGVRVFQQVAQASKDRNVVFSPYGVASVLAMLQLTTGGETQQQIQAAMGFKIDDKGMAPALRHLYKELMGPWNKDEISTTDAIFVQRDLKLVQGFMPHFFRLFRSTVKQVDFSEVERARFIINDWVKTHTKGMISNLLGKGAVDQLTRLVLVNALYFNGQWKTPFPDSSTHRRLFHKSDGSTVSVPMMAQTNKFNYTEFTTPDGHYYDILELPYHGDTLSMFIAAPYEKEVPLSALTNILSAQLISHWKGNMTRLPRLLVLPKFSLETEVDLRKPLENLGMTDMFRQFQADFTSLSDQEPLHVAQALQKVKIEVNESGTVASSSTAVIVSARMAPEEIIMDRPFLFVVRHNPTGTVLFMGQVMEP
# T2 sequence (P05121 24-402, one chain of several): as the sequence (P05121 24-402) above
Molecule,PAI-1/tPA complex formation [1],interaction with PAI-1 in yeast two-hybrid system [2],anti-proliferative function [3],anti-proliferation effect [3],clot lysis in human plasmas [4],complex with recombinant wild type PAI-1 (co-immunoprecipitation) [5],complex with endogenous PAI-1 from HUVEC culture medium [5],interaction with PAI-1 in plasma samples [5],"complex with uPA (immunoprecipitation) [6, 8]",complex with uPA (immunoprecipitation) ([6]; in the presence of PAI-1),interaction with PAI-1 in plasma samples [7],complex with endogenous murine PAI-1 in circulation ([7]; plasma of wild type mice 5 days after 16K-Ad injection)
B1,partially inhibit,interacts,reduced significantly,reduced significantly,increased significantly,formation of 16K PRL/PAI-1,able to form a complex,interaction was also demonstrated,does not form complex,formation of uPA/PAI-1/16K PRL,interaction was also demonstrated,complex formation
B2,completely abolished,found to interact,reduced significantly,reduced significantly,increased significantly,14K GH/PAI-1,able to form a complex,interaction was also demonstrated,does not form complex,uPA/PAI-1/14K GH complexes,interaction was also demonstrated,
